The values below come from the Human Domainome abundance scans (Beltran et al. 2025).

B1: Ankyrin repeat and SOCS box protein 14, residues 532 to 572; numbered along this chain, A6NK59 (parent)
chain: RSLKHLCRLKIRKCMGRLHLRCPVFMSFLPLPNRLKAYVLY

± gives the uncertainty stated by the source.

In this data set the parent is B1. Put plainly: abundance fitness (aPCA) (normalised: wild type 0, dead -1); higher = more abundant; growth selection in yeast, the domain comes from the species named. The note with it: Homo sapiens.
For RSLKHLCRLKIRKCMGRLHLRCPVFMSFLPLPIRLKAYVLY [N33I], the abundance fitness was -0.452 ± 0.27.

Turning to RSLKHLCRLKIRKCMGRLHLRCPVFMSFLPLPPRLKAYVLY [N33P], the abundance fitness was -0.004 ± 0.064.

On to RSLKHLCRLKIRKCMGRLHLRCPVFMSFLPLPARLKAYVLY [N33A], for which the abundance fitness came out at 0.234 ± 0.046.

Regarding RSLKHLCRLKIRKCMGRLHLRCPVFMSFLPLPDRLKAYVLY [N33D], the abundance fitness is 0.057 ± 0.12.

Regarding RSLKHLCRLKIRKCMGRLHLRCPVFMSFLPLPSRLKAYVLY [N33S], the abundance fitness stood at 0.105 ± 0.057.

In the case of RSLKHLCRLKIRKCMGRLHLRCPVFMSFLPLPWRLKAYVLY [N33W], the abundance fitness was -0.528 ± 0.078.

In the case of RSLKHLCRLKIRKCMGRLHLRCPVFMSFLPLPCRLKAYVLY [N33C], the abundance fitness is -0.151 ± 0.14.

For RSLKHLCRLKIRKCMGRLHLRCPVFMSFLPLPMRLKAYVLY [N33M], the abundance fitness is -0.629 ± 0.21.

As to RSLKHLCRLKIRKCMGRLHLRCPVFMSFLPLPRRLKAYVLY [N33R], the abundance fitness was 0.044 ± 0.046.

Consider RSLKHLCRLKIRKCMGRLHLRCPVFMSFLPLPKRLKAYVLY [N33K], for which the abundance fitness was -0.222 ± 0.09.

For RSLKHLCRLKIRKCMGRLHLRCPVFMSFLPLPGRLKAYVLY [N33G], the abundance fitness was 0.216 ± 0.049.

Regarding RSLKHLCRLKIRKCMGRLHLRCPVFMSFLPLPHRLKAYVLY [N33H], the abundance fitness turned out to be 0.129 ± 0.084.

In the case of RSLKHLCRLKIRKCMGRLHLRCPVFMSFLPLPYRLKAYVLY [N33Y], the abundance fitness was -0.586 ± 0.23.

Turning to RSLKHLCRLKIRKCMGRLHLRCPVFMSFLPLPLRLKAYVLY [N33L], the abundance fitness is -0.432 ± 0.073.

Take RSLKHLCRLKIRKCMGRLHLRCPVFMSFLPLPQRLKAYVLY [N33Q]: the abundance fitness is 0.111 ± 0.068.

RSLKHLCRLKIRKCMGRLHLRCPVFMSFLPLPERLKAYVLY [N33E]: the abundance fitness was found to be 0.173 ± 0.049.

For RSLKHLCRLKIRKCMGRLHLRCPVFMSFSPLPNRLKAYVLY [L29S], the abundance fitness is -0.258 ± 0.065.

As for RSLKHLCRLKIRKCMGRLHLRCPVFMSFEPLPNRLKAYVLY [L29E], the abundance fitness is -0.672 ± 0.093.

As to RSLKHLCRLKIRKCMGRLHLRCPVFMSFPPLPNRLKAYVLY [L29P], the abundance fitness is -0.342 ± 0.06.

On to RSLKHLCRLKIRKCMGRLHLRCPVFMSFYPLPNRLKAYVLY [L29Y], for which the abundance fitness was -0.53 ± 0.48.

RSLKHLCRLKIRKCMGRLHLRCPVFMSFAPLPNRLKAYVLY [L29A]: the abundance fitness is -0.356 ± 0.053.

In the case of RSLKHLCRLKIRKCMGRLHLRCPVFMSFVPLPNRLKAYVLY [L29V], the abundance fitness is -0.353 ± 0.057.

In the case of RSLKHLCRLKIRKCMGRLHLRCPVFMSFFPLPNRLKAYVLY [L29F], the abundance fitness is -0.473 ± 0.11.

For RSLKHLCRLKIRKCMGRLHLRCPVFMSFTPLPNRLKAYVLY [L29T], the abundance fitness is -0.455 ± 0.099.

Regarding RSLKHLCRLKIRKCMGRLHLRCPVFMSFIPLPNRLKAYVLY [L29I], the abundance fitness was -0.037 ± 0.12.

For RSLKHLCRLKIRKCMGRLHLRCPVFMSFMPLPNRLKAYVLY [L29M], the abundance fitness was -0.618 ± 0.21.

On to RSLKHLCRLKIRKCMGRLHLRCPVFMSFKPLPNRLKAYVLY [L29K], for which the abundance fitness was -0.299 ± 0.076.

As to RSLKHLCRLKIRKCMGRLHLRCPVFMSFGPLPNRLKAYVLY [L29G], the abundance fitness was -0.349 ± 0.052.

Consider RSLKHLCRLKIRKCMGRLHLRCPVFMSFDPLPNRLKAYVLY [L29D], for which the abundance fitness is -0.435 ± 0.087.

RSLKHLCRLKIRKCMGRLHLRCPVFMSWLPLPNRLKAYVLY [F28W]: the abundance fitness was 0.177 ± 0.052.

In the case of RSLKHLCRLKIRKCMGRLHLRCPVFMSYLPLPNRLKAYVLY [F28Y], the abundance fitness is -0.01 ± 0.12.

Regarding RSLKHLCRLKIRKCMGRLHLRCPVFMSQLPLPNRLKAYVLY [F28Q], the abundance fitness is 0.066 ± 0.065.

In the case of RSLKHLCRLKIRKCMGRLHLRCPVFMSDLPLPNRLKAYVLY [F28D], the abundance fitness was -0.056 ± 0.067.

Consider RSLKHLCRLKIRKCMGRLHLRCPVFMSRLPLPNRLKAYVLY [F28R], for which the abundance fitness was 0.104 ± 0.051.

For RSLKHLCRLKIRKCMGRLHLRCPVFMSILPLPNRLKAYVLY [F28I], the abundance fitness is 0.001 ± 0.07.

In the case of RSLKHLCRLKIRKCMGRLHLRCPVFMSTLPLPNRLKAYVLY [F28T], the abundance fitness was -0.237 ± 0.061.

Turning to RSLKHLCRLKIRKCMGRLHLRCPVFMSLLPLPNRLKAYVLY [F28L], the abundance fitness is 0.128 ± 0.055.

Regarding RSLKHLCRLKIRKCMGRLHLRCPVFMSMLPLPNRLKAYVLY [F28M], the abundance fitness is -0.127 ± 0.097.

On to RSLKHLCRLKIRKCMGRLHLRCPVFMSHLPLPNRLKAYVLY [F28H], for which the abundance fitness was determined as 0.199 ± 0.11.

For the variant RSLKHLCRLKIRKCMGRLHLRCPVFMSALPLPNRLKAYVLY [F28A], the abundance fitness is -0.228 ± 0.052.

As to RSLKHLCRLKIRKCMGRLHLRCPVFMSNLPLPNRLKAYVLY [F28N], the abundance fitness is 0.005 ± 0.13.

As to RSLKHLCRLKIRKCMGRLHLRCPVFMSCLPLPNRLKAYVLY [F28C], the abundance fitness was -0.198 ± 0.06.

Take RSLKHLCRLKIRKCMGRLHLRCPVFMSELPLPNRLKAYVLY [F28E]: the abundance fitness turned out to be 0.27 ± 0.13.

As to RSLKHLCRLKIRKCMGRLHLRCPVFMSVLPLPNRLKAYVLY [F28V], the abundance fitness is -0.156 ± 0.047.

Consider RSLKHLCRLKIRKCMGRLHLRCPVFMSKLPLPNRLKAYVLY [F28K], for which the abundance fitness turned out to be 0.221 ± 0.046.

With RSLKHLCRLKIRKCMGRLHLRCPVFMSSLPLPNRLKAYVLY [F28S], the abundance fitness was -0.05 ± 0.075.

For RSLKHLCRLKIRKCMGRLHLRCPVFMSPLPLPNRLKAYVLY [F28P], the abundance fitness is -0.322 ± 0.088.

Regarding RSLKHLCRLKIRKCMGRLHLRCPVFMSFLGLPNRLKAYVLY [P30G], the abundance fitness is 0.337 ± 0.047.

In the case of RSLKHLCRLKIRKCMGRLHLRCPVFMSFLSLPNRLKAYVLY [P30S], the abundance fitness was 0.424 ± 0.043.

On to RSLKHLCRLKIRKCMGRLHLRCPVFMSFLYLPNRLKAYVLY [P30Y], for which the abundance fitness is -0.067 ± 0.087.

With RSLKHLCRLKIRKCMGRLHLRCPVFMSFLFLPNRLKAYVLY [P30F], the abundance fitness was -0.182 ± 0.071.

RSLKHLCRLKIRKCMGRLHLRCPVFMSFLLLPNRLKAYVLY [P30L]: the abundance fitness was 0.151 ± 0.048.

As for RSLKHLCRLKIRKCMGRLHLRCPVFMSFLELPNRLKAYVLY [P30E], the abundance fitness stood at 0.4 ± 0.053.

Regarding RSLKHLCRLKIRKCMGRLHLRCPVFMSFLCLPNRLKAYVLY [P30C], the abundance fitness is 0.197 ± 0.053.

In the case of RSLKHLCRLKIRKCMGRLHLRCPVFMSFLDLPNRLKAYVLY [P30D], the abundance fitness was determined as 0.325 ± 0.061.

As to RSLKHLCRLKIRKCMGRLHLRCPVFMSFLVLPNRLKAYVLY [P30V], the abundance fitness was -0.009 ± 0.047.

As for RSLKHLCRLKIRKCMGRLHLRCPVFMSFLMLPNRLKAYVLY [P30M], the abundance fitness is 0.26 ± 0.068.

For RSLKHLCRLKIRKCMGRLHLRCPVFMSFLILPNRLKAYVLY [P30I], the abundance fitness is -0.217 ± 0.065.

Take RSLKHLCRLKIRKCMGRLHLRCPVFMSFLRLPNRLKAYVLY [P30R]: the abundance fitness is 0.485 ± 0.043.

For RSLKHLCRLKIRKCMGRLHLRCPVFMSFLTLPNRLKAYVLY [P30T], the abundance fitness came to 0.313 ± 0.06.

Consider RSLKHLCRLKIRKCMGRLHLRCPVFMSFLALPNRLKAYVLY [P30A], for which the abundance fitness amounted to 0.417 ± 0.042.
